# Source: US20240117018A1
# Columns and labels:
# Test in all cases: cell-based or functional assay
# [1] = molecular target: HIV-1 Env pseudovirus 6545.v4.c1 (HIV-1)
# [2] = molecular target: HIV-1 Env pseudovirus 3301.v1.c24 (HIV-1)
# [3] = molecular target: HIV-1 Env pseudovirus 6811.v7.c18 (HIV-1)
# [4] = molecular target: HIV-1 Env pseudovirus 231965.c01 (HIV-1)
# [5] = molecular target: HIV-1 Env pseudovirus T278-50 (HIV-1)
# [6] = molecular target: HIV-1 Env pseudovirus 211-9 (HIV-1)
# [7] = molecular target: HIV-1 Env pseudovirus 3016.v5.c45 (HIV-1)
# [8] = molecular target: HIV-1 Env pseudovirus C3347.c11 (HIV-1)
# [9] = molecular target: HIV-1 Env pseudovirus X1632_S2_B10 (HIV-1)
# [10] = molecular target: HIV-1 Env pseudovirus SC05_8C11_2344 (HIV-1)
# [11] = molecular target: HIV-1 Env pseudovirus Du422.1 (HIV-1)
# [12] = molecular target: HIV-1 Env pseudovirus CNE58 (HIV-1)
# [13] = molecular target: HIV-1 Env pseudovirus CNE17 (HIV-1)
# [14] = molecular target: HIV-1 Env pseudovirus THRO4156.18 (HIV-1)
# [15] = molecular target: HIV-1 Env pseudovirus 6244_13_B5_4576 (HIV-1)
# [16] = molecular target: HIV-1 Env pseudovirus CAP45.2.00.G3 (HIV-1)
# [17] = molecular target: HIV-1 Env pseudovirus Q769.d22 (HIV-1)
# [18] = molecular target: HIV-1 Env pseudovirus TRO.11 (HIV-1)
# [19] = molecular target: HIV-1 Env pseudovirus HIV-16845-2.22 (HIV-1)
# [20] = molecular target: HIV-1 Env pseudovirus Ce703010054_2A2 (HIV-1)
# [21] = molecular target: HIV-1 Env pseudovirus ZM135M.PL10a (HIV-1)
# [22] = molecular target: HIV-1 Env pseudovirus Ce1176_A3 (HIV-1)
# [23] = molecular target: HIV-1 Env pseudovirus CNE52 (HIV-1)
# [24] = molecular target: HIV-1 Env pseudovirus CNE20 (HIV-1)
substance,measurement,setting,value
3BNC117 (antibody),IC50 (Titer in TZM.bl cells),[1],> 50 µg/mL
same,IC80 (Titer in TZM.bl cells),[1],> 50 µg/mL
same,IC50 (Titer in TZM.bl cells),[2],0.01 µg/mL
same,IC80 (Titer in TZM.bl cells),[2],0.05 µg/mL
same,IC50 (Titer in TZM.bl cells),[3],0.03 µg/mL
same,IC80 (Titer in TZM.bl cells),[3],0.17 µg/mL
same,IC50 (Titer in TZM.bl cells),[4],0.05 µg/mL
same,IC80 (Titer in TZM.bl cells),[4],0.22 µg/mL
same,IC50 (Titer in TZM.bl cells),[5],> 15 µg/mL
same,IC80 (Titer in TZM.bl cells),[5],> 15 µg/mL
same,IC50 (Titer in TZM.bl cells),[6],0.35 µg/mL
same,IC80 (Titer in TZM.bl cells),[6],1.28 µg/mL
same,IC50 (Titer in TZM.bl cells),[7],1.38 µg/mL
same,IC80 (Titer in TZM.bl cells),[7],> 30 µg/mL
same,IC50 (Titer in TZM.bl cells),[8],0.03 µg/mL
same,IC80 (Titer in TZM.bl cells),[8],0.13 µg/mL
same,IC50 (Titer in TZM.bl cells),[9],15.7 µg/mL
same,IC80 (Titer in TZM.bl cells),[9],> 50 µg/mL
N49P7.2 (antibody),IC50,[10],0.326 µg/mL
same,IC80,[10],1.14 µg/mL
same,MPI,[10],100
same,IC50,[11],> 50 µg/mL
same,IC80,[11],> 50 µg/mL
same,MPI,[11],22
same,IC50,[12],0.045 µg/mL
same,IC80,[12],0.129 µg/mL
same,MPI,[12],100
same,IC50,[13],0.376 µg/mL
same,IC80,[13],1.24 µg/mL
same,MPI,[13],100
same,IC50,[14],6.29 µg/mL
same,IC80,[14],33.3 µg/mL
same,MPI,[14],94
same,IC50,[15],0.331 µg/mL
same,IC80,[15],1.04 µg/mL
same,MPI,[15],100
same,IC50,[16],0.162 µg/mL
same,IC80,[16],2.49 µg/mL
same,MPI,[16],95
same,IC50,[17],0.029 µg/mL
same,IC80,[17],0.14 µg/mL
same,MPI,[17],100
same,IC50,[18],0.113 µg/mL
same,IC80,[18],0.306 µg/mL
same,MPI,[18],100
same,IC50,[19],3.91 µg/mL
same,IC80,[19],18.2 µg/mL
same,MPI,[19],98
same,IC50,[20],0.124 µg/mL
same,IC80,[20],0.576 µg/mL
same,MPI,[20],100
same,IC50,[21],0.596 µg/mL
same,IC80,[21],2.8 µg/mL
same,MPI,[21],99
same,IC50,[22],0.332 µg/mL
same,IC80,[22],1.08 µg/mL
same,MPI,[22],100
same,IC50,[23],0.03 µg/mL
same,IC80,[23],0.088 µg/mL
same,MPI,[23],100
same,IC50,[24],0.119 µg/mL
same,IC80,[24],0.574 µg/mL
same,MPI,[24],99
N49P18.1 (antibody),IC50,[10],17.3 µg/mL
same,IC80,[10],> 50 µg/mL
same,MPI,[10],79
same,IC50,[11],21.5 µg/mL
same,IC80,[11],> 50 µg/mL
same,MPI,[11],75
same,IC50,[12],1.92 µg/mL
same,IC80,[12],5.26 µg/mL
same,MPI,[12],100
same,IC50,[13],39.7 µg/mL
same,IC80,[13],> 50 µg/mL
same,MPI,[13],56
same,IC50,[14],> 50 µg/mL
same,IC80,[14],> 50 µg/mL
same,MPI,[14],19
same,IC50,[15],33.4 µg/mL
same,IC80,[15],> 50 µg/mL
same,MPI,[15],61
same,IC50,[16],5.14 µg/mL
same,IC80,[16],33.1 µg/mL
same,MPI,[16],88
same,IC50,[17],4.92 µg/mL
same,IC80,[17],18.3 µg/mL
same,MPI,[17],97
same,IC50,[18],4.25 µg/mL
same,IC80,[18],11.7 µg/mL
same,MPI,[18],99
same,IC50,[19],> 50 µg/mL
same,IC80,[19],> 50 µg/mL
same,MPI,[19],23
same,IC50,[20],4.15 µg/mL
same,IC80,[20],11.6 µg/mL
same,MPI,[20],98
same,IC50,[21],> 50 µg/mL
same,IC80,[21],> 50 µg/mL
same,MPI,[21],46
same,IC50,[22],32.5 µg/mL
same,IC80,[22],> 50 µg/mL
same,MPI,[22],61
same,IC50,[23],2.46 µg/mL
same,IC80,[23],6.65 µg/mL
same,MPI,[23],100
same,IC50,[24],1.33 µg/mL
same,IC80,[24],6.36 µg/mL
same,MPI,[24],100
VRC07 (antibody),IC50 (Titer in TZM.bl cells),[1],> 50 µg/mL
same,IC80 (Titer in TZM.bl cells),[1],> 50 µg/mL
same,IC50 (Titer in TZM.bl cells),[2],0.027 µg/mL
same,IC80 (Titer in TZM.bl cells),[2],0.073 µg/mL
same,IC50 (Titer in TZM.bl cells),[3],0.093 µg/mL
same,IC80 (Titer in TZM.bl cells),[3],0.435 µg/mL
same,IC50 (Titer in TZM.bl cells),[4],0.085 µg/mL
same,IC80 (Titer in TZM.bl cells),[4],0.263 µg/mL
same,IC50 (Titer in TZM.bl cells),[5],> 50 µg/mL
same,IC80 (Titer in TZM.bl cells),[5],> 50 µg/mL
same,IC50 (Titer in TZM.bl cells),[6],5.92 µg/mL
same,IC80 (Titer in TZM.bl cells),[6],38 µg/mL
same,IC50 (Titer in TZM.bl cells),[7],0.095 µg/mL
same,IC80 (Titer in TZM.bl cells),[7],0.392 µg/mL
same,IC50 (Titer in TZM.bl cells),[8],0.06 µg/mL
same,IC80 (Titer in TZM.bl cells),[8],0.38 µg/mL
same,IC50 (Titer in TZM.bl cells),[9],0.023 µg/mL
same,IC80 (Titer in TZM.bl cells),[9],0.107 µg/mL
